Changes are numbered by the printed parent chain. Names and notes keep the numbering of the source.

The record followed here is patent US20250368745A1 (published 2025).

T1: human IL-18BP (human, UniProt O95998 31-194)
T1 construct: UniProt printed as 095998; also called hIL-18BP
T1 sequence: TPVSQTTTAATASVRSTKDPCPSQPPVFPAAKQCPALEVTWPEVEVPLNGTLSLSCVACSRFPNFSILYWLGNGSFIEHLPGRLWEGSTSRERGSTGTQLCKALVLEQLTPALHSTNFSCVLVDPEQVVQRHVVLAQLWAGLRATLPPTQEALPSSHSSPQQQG

B1: SA301a LC-Q90A (antibody, name in Kabat numbering, V domains shown)
VH: QVQLQESGPGLVKPSQTLSLTCTVSGYSITSDYNSHWIRQPPGKGLEWIGYIHYSGSTNYNPSLKSRVTISRDTSKNQFSLKLSSVTAADTAVYYCARNYGSIYVNYFDYWGQGTLVTVSS
VL: EIVLTQSPATLSLSPGERATLSCSASSSVSYMYWYQQKPGQAPRPLIYRTSNLASGIPARFSGSGSGTDFTLTISSLEPEDFAVYYCQAYHSYPTFGGGTKVEIK
notes: IgG1 kappa
B2: SA301a LC-H92F (antibody, V domains shown)
VH: B1 VH
VL: B1 VL with A89Q, H91F
B3: SA301a LC-Q89G (antibody, V domains shown)
VH: B1 VH
VL: B1 VL with Q88G, A89Q
B4: SA301a LC-Q89S (antibody, V domains shown)
VH: B1 VH
VL: B1 VL with Q88S, A89Q
B5: SA301a LC-Q89F (antibody, V domains shown)
VH: B1 VH
VL: B1 VL with Q88F, A89Q
B6: SA301a LC-Q89A (antibody, V domains shown)
VH: B1 VH
VL: B1 VL with Q88A, A89Q
B7: SA301a LC-Q89Y (antibody, V domains shown)
VH: B1 VH
VL: B1 VL with Q88Y, A89Q
B8: SA301a LC-Q89V (antibody, V domains shown)
VH: B1 VH
VL: B1 VL with Q88V, A89Q
B9: SA301a LC-Q89N (antibody, V domains shown)
VH: B1 VH
VL: B1 VL with Q88N, A89Q
B10: SA301a LC-Q89K (antibody, V domains shown)
VH: B1 VH
VL: B1 VL with Q88K, A89Q
B11: SA301a LC-H92V (antibody, V domains shown)
VH: B1 VH
VL: B1 VL with A89Q, H91V
B12: SA301a LC-H92Y (antibody, V domains shown)
VH: B1 VH
VL: B1 VL with A89Q, H91Y
B13: SA301a LC-Q89M (antibody, V domains shown)
VH: B1 VH
VL: B1 VL with Q88M, A89Q
B14: SA301a LC-Q89L (antibody, V domains shown)
VH: B1 VH
VL: B1 VL with Q88L, A89Q
B15: SA301a LC-Q89D (antibody, V domains shown)
VH: B1 VH
VL: B1 VL with Q88D, A89Q
B16: SA301a LC-Q89E (antibody, V domains shown)
VH: B1 VH
VL: B1 VL with Q88E, A89Q
B17: SA301a LC-Q90I (antibody, name in Kabat numbering, V domains shown)
VH: B1 VH
VL: B1 VL with A89I
notes: IgG1 kappa
B18: SA301a LC-Y91K (antibody, name in Kabat numbering, V domains shown)
VH: B1 VH
VL: B1 VL with A89Q, Y90K
notes: IgG1 kappa
B19: SA301a LC-Q90T (antibody, name in Kabat numbering, V domains shown)
VH: B1 VH
VL: B1 VL with A89T
notes: IgG1 kappa
B20: SA301a LC-Y91G (antibody, name in Kabat numbering, V domains shown)
VH: B1 VH
VL: B1 VL with A89Q, Y90G
notes: IgG1 kappa
B21: SA301a LC-Q90V (antibody, name in Kabat numbering, V domains shown)
VH: B1 VH
VL: B1 VL with A89V
notes: IgG1 kappa
B22: SA301a LC-Y91P (antibody, name in Kabat numbering, V domains shown)
VH: B1 VH
VL: B1 VL with A89Q, Y90P
notes: IgG1 kappa
B23: SA301a LC-Y91T (antibody, name in Kabat numbering, V domains shown)
VH: B1 VH
VL: B1 VL with A89Q, Y90T
notes: IgG1 kappa
B24: SA301a LC-Y91S (antibody, name in Kabat numbering, V domains shown)
VH: B1 VH
VL: B1 VL with A89Q, Y90S
notes: IgG1 kappa
B25: SA301a LC-Y91E (antibody, name in Kabat numbering, V domains shown)
VH: B1 VH
VL: B1 VL with A89Q, Y90E
notes: IgG1 kappa
B26: SA301a LC-Y91Q (antibody, name in Kabat numbering, V domains shown)
VH: B1 VH
VL: B1 VL with A89Q, Y90Q
notes: IgG1 kappa
B27: SA301a LC-Q90E (antibody, name in Kabat numbering, V domains shown)
VH: B1 VH
VL: B1 VL with A89E
notes: IgG1 kappa
B28: SA301a LC-Q90P (antibody, name in Kabat numbering, V domains shown)
VH: B1 VH
VL: B1 VL with A89P
notes: IgG1 kappa
B29: SA301a LC-Y91M (antibody, name in Kabat numbering, V domains shown)
VH: B1 VH
VL: B1 VL with A89Q, Y90M
notes: IgG1 kappa
B30: SA301a LC-Y91A (antibody, name in Kabat numbering, V domains shown)
VH: B1 VH
VL: B1 VL with A89Q, Y90A
notes: IgG1 kappa
B31: SA301a LC-Y91F (antibody, name in Kabat numbering, V domains shown)
VH: B1 VH
VL: B1 VL with A89Q, Y90F
notes: IgG1 kappa
B32: SA301a LC-Q90D (antibody, name in Kabat numbering, V domains shown)
VH: B1 VH
VL: B1 VL with A89D
notes: IgG1 kappa
B33: SA301a LC-Y91V (antibody, name in Kabat numbering, V domains shown)
VH: B1 VH
VL: B1 VL with A89Q, Y90V
notes: IgG1 kappa
B34: SA301a LC-Q90L (antibody, name in Kabat numbering, V domains shown)
VH: B1 VH
VL: B1 VL with A89L
notes: IgG1 kappa
B35: SA301a LC-Q90F (antibody, name in Kabat numbering, V domains shown)
VH: B1 VH
VL: B1 VL with A89F
notes: IgG1 kappa
B36: SA301a LC-Q90Y (antibody, name in Kabat numbering, V domains shown)
VH: B1 VH
VL: B1 VL with A89Y
notes: IgG1 kappa
B37: SA301a LC-Y91I (antibody, name in Kabat numbering, V domains shown)
VH: B1 VH
VL: B1 VL with A89Q, Y90I
notes: IgG1 kappa
B38: SA301a LC-Q90K (antibody, name in Kabat numbering, V domains shown)
VH: B1 VH
VL: B1 VL with A89K
notes: IgG1 kappa
B39: SA301a LC-Q90M (antibody, name in Kabat numbering, V domains shown)
VH: B1 VH
VL: B1 VL with A89M
notes: IgG1 kappa
B40: SA301a LC-Q90G (antibody, name in Kabat numbering, V domains shown)
VH: B1 VH
VL: B1 VL with A89G
notes: IgG1 kappa
B41: SA301a LC-Q90S (antibody, name in Kabat numbering, V domains shown)
VH: B1 VH
VL: B1 VL with A89S
notes: IgG1 kappa
B42: SA301a LC-Y91R (antibody, name in Kabat numbering, V domains shown)
VH: B1 VH
VL: B1 VL with A89Q, Y90R
notes: IgG1 kappa
B43: SA301a LC-Q90R (antibody, name in Kabat numbering, V domains shown)
VH: B1 VH
VL: B1 VL with A89R
notes: IgG1 kappa
B44: SA301a LC-Q90H (antibody, name in Kabat numbering, V domains shown)
VH: B1 VH
VL: B1 VL with A89H
notes: IgG1 kappa

In this test the target is T1, human IL-18BP. The test is described as follows: BLI, apparent KD. (In BLI a coated tip is dipped into the sample, and binding shifts an interference pattern.)
Take B1: the Kd is 1.07 nM.
With B2, the Kd stood at 0.7 nM.
Under B3 stands 0.32 nM.
Under B4 stands 0.28 nM; under B5, 0.4 nM; under B6, 0.39 nM.
The figure for B7 is 0.35 nM.
Regarding B8, the Kd was determined as 0.51 nM.
The figure for B9 is 0.28 nM; for B10 it is 0.97 nM; for B11 it is 0.2 nM.
As for B12, the Kd amounted to 0.1 nM.
The figure for B13 is 0.49 nM; for B14 it is 0.85 nM; for B15 it is 0.02 nM.
Under B16 stands 0.46 nM; under B17, 0.24 nM.
The figure for B18 is 1.13 nM; for B19 it is 0.4 nM.
In the case of B20, the Kd turned out to be 0.23 nM.
Under B21 stands 0.29 nM; under B22, 0.24 nM; under B23, 0.45 nM.
As to B24, the Kd was 0.33 nM.
Under B25 stands 0.31 nM.
Turning to B26, the Kd amounted to 0.24 nM.
The figure for B27 is 0.18 nM; for B28 it is 0.09 nM; for B29 it is 0.22 nM.
The figure for B30 is 1.08 nM; for B31 it is 0.26 nM; for B32 it is 0.31 nM.
Under B33 stands 1.85 nM; under B34, 0.13 nM.
For the molecule B35, the Kd was found to be 0.65 nM.
The figure for B36 is 1.04 nM.
Under B37 stands 0.42 nM.
The figure for B38 is 0.1 nM; for B39 it is 0.27 nM; for B40 it is 0.78 nM.
With B41, the Kd was 0.41 nM.
For B42, the Kd turned out to be 0.18 nM.
Under B43 stands 0.51 nM.
Consider B44, for which the Kd stood at 0.25 nM.
